Laboratory results from US20240317847A1 (Bayer, published 2024).
Changes are numbered by the printed parent chain. Blank lines part the entries; values can stand above or below the binder they belong to.

What was measured:
murine IL-11 [1] = biological target: T1, murine IL-11 (mouse, UniProt P47873 22-199); experiment: SPR, antibody captured, IL-11 as analyte
T1 construct: bought from Invigate; also called mIL-11; mIL11
T1 sequence: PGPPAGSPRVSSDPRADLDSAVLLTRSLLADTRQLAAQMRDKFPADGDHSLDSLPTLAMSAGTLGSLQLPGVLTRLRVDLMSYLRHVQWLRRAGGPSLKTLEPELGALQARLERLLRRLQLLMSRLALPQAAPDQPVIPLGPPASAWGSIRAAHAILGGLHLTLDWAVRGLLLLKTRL
Experimental: (§1) Antibodies were captured via anti-mouse Fc IgGs (“Mouse antibody capture kit, Order No. BR100383, Cytiva) covalently amine coupled to a Series S CM5 sensor chip (Cytiva). The amine coupling was carried out according to the manufacturer's instructions using 1-ethyl-3-(3-dimethylaminopropyl) carbodiimide hydrochloride (EDC), N-hydroxysuccinimide (NHS) and ethanolamine HCl, pH 8.5 (“Amine Coupling Kit” BR-1000-50, Cytiva.). Human IL-11 (Invigate, e.g., lot #C121021-19), and murine IL-11 (Invigate, e.g., lot #C210819-09) were used as analytes. […] Based on that experiment an IL-11 concentration range was chosen to optimally determine kinetics and affinity of anti-IL-11 antibodies in multicycle kinetics mode. The sensor surface was regenerated with glycine pH 1.7 after each antigen injection. Obtained sensorgrams were double referenced (subtraction of reference flow cell signal and buffer injection) and were fitted to a 1:1 Langmuir binding model to derive kinetic data using the Biacore T200 Evaluation software or the Biacore Insight software.
(§2) 42 hits from the IL-11 and […] screening analysis were selected, expressed by transient transfection of mammalian cells and purified as described in Example 15. Antibodies were then tested for human IL-11 and murine IL-11 binding by SPR as described in Example 16.

human IL-11 [2] = biological target: T2, human IL-11 (human, UniProt P20809 22-199); experiment: SPR, antibody captured, IL-11 as analyte
T2 construct: bought from Invigate; also called hIL-11; hIL11
T2 sequence: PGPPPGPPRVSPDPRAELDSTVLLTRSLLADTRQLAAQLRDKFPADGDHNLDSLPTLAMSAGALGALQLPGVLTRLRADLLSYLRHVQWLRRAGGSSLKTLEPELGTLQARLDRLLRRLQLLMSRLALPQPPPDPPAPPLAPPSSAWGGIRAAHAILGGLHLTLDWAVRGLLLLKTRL
Experimental: as §1, §2

human IL2Ra = biological target: T3, human IL2Ra (human, UniProt P01589 22-240, limits assumed); experiment: IL2Ra direct binding ELISA, signal ratio to isotype control
T3 construct: bought protein, coated on the plate; also called hIL2RA; IL-2 receptor alpha
T3 sequence (looked up): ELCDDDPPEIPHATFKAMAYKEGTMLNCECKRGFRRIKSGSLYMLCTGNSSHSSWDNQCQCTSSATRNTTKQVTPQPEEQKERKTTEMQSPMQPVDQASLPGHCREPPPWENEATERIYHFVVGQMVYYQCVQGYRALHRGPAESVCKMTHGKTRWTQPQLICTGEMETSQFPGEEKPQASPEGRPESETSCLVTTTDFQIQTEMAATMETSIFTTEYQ
Experimental: IL2RA (Peprotech, Germany, #200-02RC) was coated at 1 or 0 μg/ml (buffer only control) in 30 μl coating buffer (Candor, #113500) per well on a 384 well microtiter plate (Maxisorb, Nunc, #460518) over night at 4-8° C. After two washes with 50 μl/well washing buffer (PBS+0.05% Tween, pH 7.4), the plates were incubated for two hours at room temperature with 50 μl/well SmartBlock (Candor, #113500). After blocking, the plates were washed three times with washing buffer. Then, a dilution series of the respective antibody (1E-7 [M] down to 2E-13 [M]) in PBS+0.05% Tween, 10% SmartBlock were added in 30 μl to the microtiter plate and incubated for 90 min at room temperature. After three additional washes, 30 μl anti mouse IgG HRP-conjugated antibody (Biotechne, HAF007), diluted 1:1000 in PBS+0.05% Tween (pH 7.4), were added per well and incubated for one hour. After three additional washes, a mixture of Amplex red (Invitrogen, #12222, 10 mM stock solution in DMSO) 1:1000 diluted in PBS and H2O2 (30%, Merck, #107209)) diluted 1:10000 in PBS were added as substrate with 30 μl per well and incubated for 20 min in the dark. Relative fluorescence was measured with a microtiter plate reader at 535/590 nm.
Next, the 42 antibodies were subjected to an IL2Ra binding ELISA as described in Example 20.

human IL-11 [3] = biological target: T4, human IL-11 (human, UniProt P20809 22-199); experiment: cell-based or functional assay
T4 sequence: T2 sequence

murine IL-11 [4] = biological target: T5, murine IL-11 (mouse, UniProt P47873 22-199); experiment: cell-based or functional assay
T5 sequence: T1 sequence

B1: TPP-26290 (antibody, V domains shown)
VH: EVQLLESGGGLVQPGGSLRLSCAASGFTFSSYGMHWVRQAPGKGLEWVSVISYDGSYKYYADSVKGRFTISRDNSKNTLYLQMNSLRAEDTAVYYCAAGVPDYWGQGTLVTVSS
VL: QSVLTQPPSASGTPGQRVTISCTGSSSNIGAGMDVHWYQQLPGTAPKLLIYSNNERPSGVPDRFSGSKSGTSASLAISGLRSEDEADYYCAAWDDSLNGPVFGGGTKLTVL
notes: constant regions not restated
- Kd (murine IL-11 [1]): 0.54 nM
- Kd (human IL-11 [2]): 8.6 nM

B4: TPP-26324 (antibody, V domains shown)
VH: B1 VH with A61R
VL: B1 VL with M33Y
- hIL2RA ELISA Binding: Ratio to Isotpye (human IL2Ra): 247 ratio
- RGA Efficacy (%) (human IL-11 [3]): 59%
- RGA IC50 (human IL-11 [3]): 1.5 nM
- RGA Efficacy (%) (murine IL-11 [4]): 92.4%
- RGA IC50 (murine IL-11 [4]): 1.3 nM

B5: TPP-26293 (antibody, V domains shown)
VH: B1 VH
VL: B1 VL with G32W, M33Y
notes: constant regions not restated
- Kd (murine IL-11 [1]): 0.26 nM
- Kd (human IL-11 [2]): 11 nM

B12: TPP-26326 (antibody, V domains shown)
VH: B1 VH with S31Y
VL: B1 VL with M33Y
- hIL2RA ELISA Binding: Ratio to Isotpye (human IL2Ra): 516 ratio
- RGA Efficacy (%) (human IL-11 [3]): 72%
- RGA IC50 (human IL-11 [3]): 5.4 nM
- RGA Efficacy (%) (murine IL-11 [4]): 83%
- RGA IC50 (murine IL-11 [4]): 2 nM

B14: TPP-26333 (antibody, V domains shown)
VH: B1 VH with M34F
VL: B1 VL with M33Y
- hIL2RA ELISA Binding: Ratio to Isotpye (human IL2Ra): 436 ratio
- RGA Efficacy (%) (human IL-11 [3]): 64.7%
- RGA IC50 (human IL-11 [3]): 13 nM
- RGA Efficacy (%) (murine IL-11 [4]): 94.1%
- RGA IC50 (murine IL-11 [4]): 1.2 nM

B16: TPP-26330 (antibody, V domains shown)
VH: B1 VH with S31F
VL: B1 VL with M33Y
- hIL2RA ELISA Binding: Ratio to Isotpye (human IL2Ra): 264 ratio
- RGA Efficacy (%) (human IL-11 [3]): 64.8%
- RGA IC50 (human IL-11 [3]): 3.4 nM
- RGA Efficacy (%) (murine IL-11 [4]): 88.2%
- RGA IC50 (murine IL-11 [4]): 1.3 nM

B17: TPP-26329 (antibody, V domains shown)
VH: B1 VH with Y32W
VL: B1 VL with M33Y
- hIL2RA ELISA Binding: Ratio to Isotpye (human IL2Ra): 247 ratio
- RGA Efficacy (%) (human IL-11 [3]): 67.1%
- RGA IC50 (human IL-11 [3]): 2.6 nM
- RGA Efficacy (%) (murine IL-11 [4]): 95.5%
- RGA IC50 (murine IL-11 [4]): 1 nM

B18: TPP-26328 (antibody, V domains shown)
VH: B1 VH with G99T
VL: B1 VL with M33Y
- hIL2RA ELISA Binding: Ratio to Isotpye (human IL2Ra): 27 ratio
- RGA Efficacy (%) (human IL-11 [3]): 18.6%
- RGA Efficacy (%) (murine IL-11 [4]): 70.8%
- RGA IC50 (murine IL-11 [4]): 64 nM

B19: TPP-26295 (antibody, V domains shown)
VH: B1 VH
VL: B1 VL with M33Y, D95H
notes: constant regions not restated
- Kd (murine IL-11 [1]): 0.65 nM
- Kd (human IL-11 [2]): 9.8 nM

B21: TPP-26297 (antibody, V domains shown)
VH: B1 VH
VL: B1 VL with M33Y, D94Q
notes: constant regions not restated
- Kd (murine IL-11 [1]): 0.89 nM
- Kd (human IL-11 [2]): 13 nM

B24: TPP-26321 (antibody, V domains shown)
VH: B1 VH
VL: B1 VL with M33Y, D95L
- hIL2RA ELISA Binding: Ratio to Isotpye (human IL2Ra): 182 ratio
- RGA Efficacy (%) (human IL-11 [3]): 71.3%
- RGA IC50 (human IL-11 [3]): 2.1 nM
- RGA Efficacy (%) (murine IL-11 [4]): 93.5%
- RGA IC50 (murine IL-11 [4]): 1.1 nM

Second part, the binder after the results:

- Kd (human IL-11 [2]): 11 nM
B2: TPP-26333 (antibody, V domains shown)
VH: B1 VH with M34F
VL: B1 VL with M33Y
notes: constant regions not restated

- Kd (murine IL-11 [1]): 0.48 nM
- Kd (human IL-11 [2]): 13 nM
B3: TPP-26292 (antibody, V domains shown)
VH: B1 VH
VL: B1 VL with M33Y, D95E
notes: constant regions not restated

- hIL2RA ELISA Binding: Ratio to Isotpye (human IL2Ra): 260 ratio
- RGA Efficacy (%) (human IL-11 [3]): 70.3%
- RGA IC50 (human IL-11 [3]): 7.4 nM
- RGA Efficacy (%) (murine IL-11 [4]): 100%
- RGA IC50 (murine IL-11 [4]): 1.5 nM
B6: TPP-26320 (antibody, V domains shown)
VH: B1 VH
VL: B1 VL with M33Y, N54E

- hIL2RA ELISA Binding: Ratio to Isotpye (human IL2Ra): 542 ratio
- RGA Efficacy (%) (human IL-11 [3]): 81.4%
- RGA IC50 (human IL-11 [3]): 1.7 nM
- RGA Efficacy (%) (murine IL-11 [4]): 93%
- RGA IC50 (murine IL-11 [4]): 1.3 nM
B7: TPP-26325 (antibody, V domains shown)
VH: B1 VH with S31W
VL: B1 VL with M33Y

- Kd (murine IL-11 [1]): 0.94 nM
- Kd (human IL-11 [2]): 9.7 nM
B8: TPP-26291 (antibody, V domains shown)
VH: B1 VH
VL: B1 VL with M33Y, D95P
notes: constant regions not restated

- Kd (murine IL-11 [1]): 0.63 nM
- Kd (human IL-11 [2]): 11 nM
B9: TPP-26299 (antibody, V domains shown)
VH: B1 VH
VL: B1 VL with M33Y, N98Y
notes: constant regions not restated

- Kd (murine IL-11 [1]): 0.73 nM
- Kd (human IL-11 [2]): 13 nM
B10: TPP-26298 (antibody, V domains shown)
VH: B1 VH
VL: B1 VL with T23L, M33Y
notes: constant regions not restated

- hIL2RA ELISA Binding: Ratio to Isotpye (human IL2Ra): 107 ratio
- RGA Efficacy (%) (human IL-11 [3]): 54.9%
- RGA IC50 (human IL-11 [3]): 5.4 nM
- RGA Efficacy (%) (murine IL-11 [4]): 90.9%
- RGA IC50 (murine IL-11 [4]): 1.5 nM
B11: TPP-26331 (antibody, V domains shown)
VH: B1 VH with M34G
VL: B1 VL with M33Y

- hIL2RA ELISA Binding: Ratio to Isotpye (human IL2Ra): 19 ratio
- RGA Efficacy (%) (human IL-11 [3]): 0.8%
- RGA Efficacy (%) (murine IL-11 [4]): 0.9%
B13: TPP-26332 (antibody, V domains shown)
VH: B1 VH with G33K
VL: B1 VL with M33Y

- Kd (murine IL-11 [1]): 0.71 nM
- Kd (human IL-11 [2]): 14 nM
B15: TPP-26296 (antibody, V domains shown)
VH: B1 VH
VL: B1 VL with M33Y, D95N
notes: constant regions not restated

- hIL2RA ELISA Binding: Ratio to Isotpye (human IL2Ra): 256 ratio
- RGA Efficacy (%) (human IL-11 [3]): 57.6%
- RGA IC50 (human IL-11 [3]): 2 nM
- RGA Efficacy (%) (murine IL-11 [4]): 95.9%
- RGA IC50 (murine IL-11 [4]): 0.92 nM
B20: TPP-26323 (antibody, V domains shown)
VH: B1 VH
VL: B1 VL with M33Y, D95G

- Kd (murine IL-11 [1]): 0.82 nM
- Kd (human IL-11 [2]): 11 nM
B22: TPP-26294 (antibody, V domains shown)
VH: B1 VH
VL: B1 VL with G32A, M33Y
notes: constant regions not restated

- hIL2RA ELISA Binding: Ratio to Isotpye (human IL2Ra): 11 ratio
- RGA Efficacy (%) (human IL-11 [3]): 15%
- RGA Efficacy (%) (murine IL-11 [4]): 38%
- RGA IC50 (murine IL-11 [4]): 470 nM
B23: TPP-26327 (antibody, V domains shown)
VH: B1 VH with S52R
VL: B1 VL with M33Y
